Assay results: publication PMC5841360

Biological target: mycGluA2 (recombinant) (UniProt P19491)
Assay: co-IP with flag antibody, myc-GluA2 blot
Conditions: reference: wild type; sites Y421,Y466,Y482

binding against the reference: stronger
Substance: flag-cortactin (recombinant) (from UniProt Q60598) Y421F/Y466F/Y482F (TYM)
